Data published in the DeepSol protein solubility set.

Assay: soluble on expression in E. coli; label from the status in PepcDB or PDB records

Sequence	soluble on expression in E. coli
MSLKIGKIVSVNFNQFRVKISSEIRGNSVNLAGTVYYFGNIGSYLKTTNSVGEQLICEVMSIFDSDTKLDSAAYDFDSNRELLLKPIGTITRDDRFNLGVGIFPGIYSEVNVVTFEDMELILQTGKDKELSKAIHQSFFLGESKNLINYPIDISINSFFNIHSAVLGNSGSGKSNTIAHIIQEIHKKKNNSAIGSRILIFDVNGEYKNAFTGHEISPYIKVRLLKPNIEATEDGVEPFYLPHFLMNIDEWSSFLMATDATQRPFWDKVLQESYKFYMIATHEGDDRQKLINYLRFKICNLIHILQAQGDSDTAIITTAQGILYGILTLIEMDDDLQRACQQEGVLQDLHDLNASEGHHHHHH	not soluble
MMSGGYKSSGVGNDRSQRSVFVGNISYDVSEDTIRSIFSKAGNVLSIKMVHDRETGKPKGYGFIEFPDIQTAEVAIRNLNGYELSGRILRVDSAAGGMNMEEFGSSSNAPAPVEENPYGPECDAGKAPERISQTVASLAPEKMFELMKQLQESLKNNPSELHKFLVEHPQIAYAVLQAAVVMRIVDPQTALGLLHRNKAATLTPFHNTPQGAPPMVQQQQMPMPPKPTFAHPGPSMGPPMGPPMGPPMGHPQAPQYGQNYGQPVAPQQYKPPPQQQPPVQMRPPVQQPQQNHQEEQQNAELLMQVMQLSEHDLQMLPAGDREKIIELRQQLKRNVK	not soluble
MALPLPDPSEQAYSDTLKTMLHERIAHSGGWISFADYMETVLYTPETGYYSGGAAKFGTAGDFVTAPEISPLFGQALARQIAPILSAVNQGSILEFGAGSGKLAVDLLCALEELNNLPQHYYILDLSADLQQRQRAMIEQHIPHLASRVSWLSALPEQFEGLILANEVLDAMPVHLVAWQNGNIAERGVIWKDQGPVWQDQPLAAGELLDVARQLPPADQFSYPLYISEISLTNRHFICSLAMLLQRGAILLVDYGFGQNEYYHPQRHQGTLMCHYRHHAHDDPFFLPGLQDITSHVDFSTIARTALDSGLQLAGYTTQAHFLINCGITDLLARTPADQPGSYLPLVSQVQRLVSPAEMGELFKVMVLSRDIDIDAASCGFTRGDLRRLLLEHHHHHH	not soluble
MGSDKIHHHHHHMRDFSSDHSALALNTASLGHNLEGHGAGWTSEQVIDACAERGFGSIVFWRREIGERAVKIGERVRSAGLTVAGLCRTPFLVGTQATDVESVMDDFKRSIDMAAALGAPVLTIVVGGVHPGTKGVAESLKIVADRVAEAAPCAQASGVKLALEPLNPVYAGNRSCLTTLRDAVDLCDRIAAPNVGIAVDVYHVWWDTELERQLKRAGAERIYGYHLCDWLAETNDVLLDRGMMGDGVADLKAIRSFVEGAGYRGPCEVEIFSANDWWKRDPGEVLDVMVERFRNCC	not soluble
MLGMSYLRYVRIIGTVHVSPQSVKEVRNIILRENPDAVAVELDYGRLLSLLNGSSLTFSQAIKLGKIGILAYLLQGVEMALGKQVGVLPGSEMIEAFEVARSLGIPIYMIDMPIQVTLKRLFSVPIEEKIRGIIEIFLSIVYPKVELNLEDYISLELEFKRKYPTVYKILVEERNEFMARNLMRIVDILLERKKKIKIIAVVGLGHKRGIERILSHYSPKSIYLEHHHHHH	not soluble
MGSDKIHHHHHHMKDVSIVLSGEAGQGIQTVENVLTRVLKDSGFHVFATKEYMSRVRGGNNTTEIRVSSRRVRSFVDRIDVLIPLGKGATERLKNRITEKTLVIGEEEFIKESPGEKIVIPFLNIAKQIGKSIYANSVAIGFLSGLLGADESALKDQITRQFSSKGEDIVNDNIRAALEGYKKGQELSQKIEFDVEKDPSIKNEVLLNGAEAVGLGAIAGGCNFVSSYPMSPSTSVLVFLAQHKNDFGIVVEQAEDEIAAMNMIIGAWYAGARGLVTTSGGGFALMEEALSLAGMIESPAVIHLAQRPGPATGLPTRTEQGDLNLALYAGHGDFPRVIYAPGNVEEAFYLTQKAFNVADKYQVPVFVLTDQYLVDSYYNLPGFDLNELKVEKHFIKTTRDYIRYAITEDGISPRGIPGYGEGLVRVDSDEHDEFGHITEDFNTRVRMVNKRLRKGETLKKEIVKPKLIGDENYRVLLVAWGSTLEPIKEAIEGLDGVALLHFSQVWPIDESVATYFEKAEKVVAVEGNATGQFANLIRQVTGFHIKDRILKYNGLQFSVEELKEKIAEVL	not soluble
MKSGIYQIKNTLNNKVYVGSAKDFEKAWKRHFKDLEKGCHSSIKLQRSFNKHGNVFECSILEEIPYEKDLIIERENFWIKELNSKINGYNIADATFG	soluble
MSLYRDSKRKIIRDLQKQDIQYVEYGDTRTLIIPTDKYFMFSSPRLNEICYPGLNNVIRLLNFYPQSTIYVAGFTDNVGSRSHKRKLSQAQAETMMTFLWANGIAAKRLKAEGYGDKNAISDNAIIHGSAQNRRIEIQWFTSPAQPPQPQMAYVKEGHHHHHH	soluble
MTVTDLSKKPLLLLDHVTMQFGGLVAVDDFTNEIREGELVGLIGPNGAGKTTVFNVITGIYTPTKGRIVFNDIDITGLRPYQITHLGIARTFQNIRLFSDMTVLENVLVAQHHVLSNPDADRILVKHGKPRKGHGRFWFWRAVTKIGYLKKEKEMVERAKDLIKRVGLEKVMYEKASSLPYGEQRKLEIARALATEPKLILLDEPAAGMNPKETEDLMEFIKQIRKDFNLTVLLIEHDMKVVMGICERIIVMDYGRIIAEGTPKEIQNDPRVIEAYLGREWESV	soluble
IKELKMSKDEIKREYKEMEGSPEIKSKRRQFHQEIQSRNMRENVKRSSVVVAAATHIAIGILYKRGETPLPLVTFKYTDAQVQTVRKIAEEEGVPILQRIPLARALYWDALVDHYIPAEQIEATAEVLRWLERQNIEKQHSEML	soluble
MSLKITDVQLTAIGMPRLTGFVNKHVIVQLFTDEGIEGIGEMSDFSHLPKYAVDIVDLERTLKQILVGKNPFDIAPINTELNGNFPEAMYYYEKGSFIRNGVDTALYDLCAKALGVSVSDLLGGRQREKIKVCFPIFRHRFMDEVEANLELVKKQYEKGFDVFRLYVGKNVDADEAFLAGVYNEFGGKVKVKSLDFSHLLDWKEALRITRRLAKYPIDLVESPALRNDFAGLHHFRMRCELPVSEHVWSLRQQSEMIKHDSVDIFNIAPVFIGGITQARKAADAAAVAEKSVLIGTTQELSIGTTAMAYFGSTLDHLNYISDPTGPELYVGDVVKNKVNYENGYLHLPERSTIGLGMELDWEKVEQYRVESLNWEDVSVHQLQDRTAQTRAEGHHHHHH	soluble
MAHHHHHHMESPEADEAFSKSLDAKVDDLFARIPLPQDPMKVALALTDEEAREEAATELVKEAVREMYWRKLGAKQAEELRLKKAQEKLQKQGAIQYFEERREEERLREHENTQFAAQPLAVEPQSPVGKGVTASPLQNLDSTLSAEELRKELAAMKANVSRLEELLRYKT	soluble
MGSDKIHHHHHHMFRTFTEKRSEWKEQISEEIIPLIHRGMVNRKQWLLVNLKGRLWSGSLRDQFMFENIEWLRNYYKGEKLIVWAHNYHIRKNRSLLLELLRIKTVDHLLAKKYADRVFSVGFYAGSGTCLTPYKDLHEITMINQYHLELLLKELNGHTFFLPTNIGAKRNAWNKQAWWLLETRLLGMAPLVLKPIKAYDAIFFIKCVKPPQELGG	not soluble
MSLKVKSIKAITLSMPFSHGGKKVIFHGKEWKSLEFNLIRLETDKGIVGWGEAFGFSSWKAVRVAIEEMVAPMIIGKDMSNIPELLLNLQKSLHLFGRYGITMFAISGVEIALWDAFGKEKNKPVHELLGKKNNDIFKAYSSLFRYGDPKIIEQKCKQSLDDGYRAIKLHEIENNCIEAGRKGTGDLPMMLDTNCPWTYEQTLAKKDFLKSMNLTWLEEPIYPPEDYQTLAKLNKELGIPLACGENACTEYEFKSMIDHKAVSFVQPSVIKVGGIYEMFKIINIAEDKNISVMPHTAYFGPGFLATLQLAALMKKETYIERFYLDIDEEFYPNFKKALNGKYNLPKGPGLGIDLDYKRLSKYEIEGHHHHHH	soluble
MSLDSKIDILIVVNMFLTGFDSKVLNTLYVDKNLMYHDLIQAYSRTNRVEKESKPFGKIVNYRDLKKETDDALRVFSQTNDTDTILMRSYEEYKKEFMDAYRELKMIVPTPHMVDDIQDEEELKRFVEAYRLLAKIILRLKAFDEFEFTIDEIGMDEQENEDYKSKYLAVYDQVKRATAEKNKVSILNDIDFEIEMMRNDTINVNYIMNILRQIDLEDKAEQREGHHHHHH	soluble
FTLVCITAASRHHWGTEVDIFDPDLLPRGQSLQLEPWEYEKGGYFFELSEFLAENLPHFDFALPFMNMQSNKKVGREPWHISYLPL	not soluble
MGSDKIHHHHHHGEDEKKPEIVVDPAEKTIEYYIAGKVTEGTTALSGVEVKAGEVTATTDAEGAYKLTVDSKKMYTVTFSKEGYMSIDNATATIADNAANRSMVSLSVKLSKKAPEKEVKADAEEEVVVTDKGDSNISQAEAAVIIPPKAIETTTTVSVTPYEEPAAVTTTVTPGNNVETPVAIANIEVETAKEVTLAKPVTLAIINKASEHTTFENVEVYNQKTTTRAGENWNKVADAIYDSETNSYKFTLPAGASLSGKYSMRVKSSKTTGKERIGETNKEEKKSNEGNMTAIPEYKINFEATAGWEYTVSPEKALMNAGVDAADAQGMATTINSAIEAQEGTTGTYKVAHELIAGISGNHILYYLNQAKYCEKTYTFKISGGRTVTITLKFYTGMQITYTNVEASQHSGGKI	not soluble
MSLSKNKYLFKYLIVDRKKLDPSYTYKYDNIQWNHKIIAIGDIHGDVESLKLILRHSNLIDENDEWIAEDVMLVQVGDILDRGVFGTYIYDYLLKLQKDAIKKNSKVILIMGNHEQLNLCGAFHYVNESEVMLFFQNNRNNRLFSFTNKNGYYFKKLIRLPVIVKINNIIFTHGGISKHMSEYDINTINLKTRLQIENKCKMFQFEKYNYLSKEGVLWNNEISHQVKLQPKKTCKHLRNILKKYNAKGLVVGHTRQKSHEIQTYCNNSFFLIDTGMSLFMNNGQPYPNYLQIEKGKFKTVHLIVQEYNRKEGHHHHHH	not soluble
MSSAQVNGISKRLIVESPNVKLEDGVLESRFTYRKNHFEHRADGLHVTPKEHDYSFKTVLKPRKTGLLLVGLGGNNGSTAVGSIFANQYAMTWRTKEGHSQANYFGSVTQTATVHLGYDSATQNQIFVPFKDIVPILSPNDLIISGWDISDSNLYEAMGRAKVFEPELQEKLRPFMEPIVPLPSIYYPDFIASNQGDRANNVIPGDNKLEHLEHIRADIRKFKQEHELECVIVLWTANTERYTDVRQGLNATADEIMESIRVNEDEVSPSNIFAVASILEGAHYINGSPQNTLVPGLIELAERHKVFVGGDDFKSGQTKFKSAFVDFLVSSGMKPESIVSYNHLGNNDGKNLSEARQFRSKEISKSSVVDDMVKSNQILFPDAKNPDHCVVIKYVPYVADSKRAMDEYICSIFMGGKQTFVVHNTCEDSLLASPLIYDLAILTELASRVSYKVDDEYKPFHSVLSILSLLLKAPVVPPGTPISNAFMRQFSTLTKLVTALAGFPSDTDMQIEFFTQLPAAKSKSQ	not soluble
MGSDKIHHHHHHMAATLEAVPSTKTADKKTEISEADAARELVRMAKEQGLSLTGPDGLLKQLTKTVIETALDEEMTEHLGYEKHDSAGKQTANSRNGVRPKTVLTETTGPVEVDVPRDRAGTFEPVIVKKRQRRLTGVDEMVLSLYAKGLTTGEISAHFAEIYGASVSKETVSRITDRVLEEMAAWQNRPLDEVYAAIFIDAIVVKVRDGQVANRPIYAAIGVTLEGEKDILGLWAGTGGEGAKFWMSVLTDIKNRGVKDTFFLVCDGLKGLPEVVTNVWPLATVQTCIIHLIRNTFRLASRQDWDALKRDVKPIYTAPNAEAARTALEELAERWGRKYGAIVRLWENAWEELIPFLDYDVEIRRVICSTNAIESLNARYRRAVKARGHLPTEQAALKCLYLVTRSLDPTGAGKTRWAVRWKPALNAFAITFSDRFPAAESY	not soluble
